IntAct's records for PubMed 21245303

B1: Segment polarity protein dishevelled homolog DVL-2 (Homo sapiens), O14641 (parent)
chain: MAGSSTGGGGVGETKVIYHLDEEETPYLVKIPVPAERITLGDFKSVLQRPAGAKYFFKSMDQDFGVVKEEISDDNARLPCFNGRVVSWLVSSDNPQPEMAPPVHEPRAELAPPAPPLPPLPPERTSGIGDSRPPSFHPNVSSSHENLEPETETESVVSLRRERPRRRDSSEHGAGGHRTGGPSRLERHLAGYESSSTLMTSELESTSLGDSDEEDTMSRFSSSTEQSSASRLLKRHRRRRKQRPPRLERTSSFSSVTDSTMSLNIITVTLNMEKYNFLGISIVGQSNERGDGGIYIGSIMKGGAVAADGRIEPGDMLLQVNDMNFENMSNDDAVRVLRDIVHKPGPIVLTVAKCWDPSPQAYFTLPRNEPIQPIDPAAWVSHSAALTGTFPAYPGSSSMSTITSGSSLPDGCEGRGLSVHTDMASVTKAMAAPESGLEVRDRMWLKITIPNAFLGSDVVDWLYHHVEGFPERREARKYASGLLKAGLIRHTVNKITFSEQCYYVFGDLSGGCESYLVNLSLNDNDGSSGASDQDTLAPLPGATPWPLLPTFSYQYPAPHPYSPQPPPYHELSSYTYGGGSASSQHSEGSRSSGSTRSDGGAGRTGRPEERAPESKSGSGSESEPSSRGGSLRRGGEASGTSDGGPPPSRGSTGGAPNLRAHPGLHPYGPPPGMALPYNPMMVVMMPPPPPPVPPAVQPPGAPPVRDLGSVPPELTASRQSFHMAMGNPSEFFVDVM

Variants of: B1
Conditions: with axin1_human AXIN1, O15169
axin1_human AXIN1, O15169, sequence (O15169 whole entry): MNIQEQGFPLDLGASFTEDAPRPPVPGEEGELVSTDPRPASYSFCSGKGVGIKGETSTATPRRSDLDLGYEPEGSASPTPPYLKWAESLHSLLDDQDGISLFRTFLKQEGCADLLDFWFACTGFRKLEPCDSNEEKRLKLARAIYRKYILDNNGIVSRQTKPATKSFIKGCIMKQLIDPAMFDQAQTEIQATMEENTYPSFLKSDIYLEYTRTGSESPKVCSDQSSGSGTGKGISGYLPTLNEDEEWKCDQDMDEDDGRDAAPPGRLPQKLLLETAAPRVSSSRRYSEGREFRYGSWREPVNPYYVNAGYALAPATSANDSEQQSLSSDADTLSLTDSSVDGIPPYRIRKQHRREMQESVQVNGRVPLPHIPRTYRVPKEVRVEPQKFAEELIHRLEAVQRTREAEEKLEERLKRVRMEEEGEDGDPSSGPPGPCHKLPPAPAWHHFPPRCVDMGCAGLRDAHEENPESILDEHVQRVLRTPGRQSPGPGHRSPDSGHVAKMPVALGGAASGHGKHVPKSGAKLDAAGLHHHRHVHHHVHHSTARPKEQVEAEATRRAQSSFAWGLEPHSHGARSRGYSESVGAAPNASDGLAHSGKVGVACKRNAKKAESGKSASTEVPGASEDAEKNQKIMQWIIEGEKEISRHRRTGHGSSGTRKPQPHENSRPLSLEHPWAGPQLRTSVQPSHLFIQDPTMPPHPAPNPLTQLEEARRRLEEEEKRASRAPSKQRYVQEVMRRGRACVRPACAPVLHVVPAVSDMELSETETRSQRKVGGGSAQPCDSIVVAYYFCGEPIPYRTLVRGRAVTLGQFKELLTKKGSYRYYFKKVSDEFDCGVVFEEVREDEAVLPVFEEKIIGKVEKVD

effect of a mutation on the interaction | Variant
disrupting interaction strength | Y27D
